The nature of this series: soluble on expression in E. coli; label from the status in PepcDB or PDB records.
Take “MALAQQLRSESDFEQLPDDVAVSANIADIEEKRGFTSHFVFVIEVKTKGGSKYLIYRRYRQFYALQSKLEERFGPESKNSPFTCSLPTLPAKVYMGAKQEIAETRIPALNAYMKNLLSLPVCVLMDPDVRIFFYQSAYDAEQVPQALRRLRPRTRKIKGVSPQGAIMDRMEAPRAEALFDFTGNSKLELSFKAGDVIFLLSKINKDWLEGTSQGATGIFPGSFVKILKDFPEDEDTTNWLRCYFYEDTGKTIKDIAVEEDLSSTPLFKDLLALMRREFQREDIALSYQDAEGDLVRLLSDEDVGLMVKQARGLPSQKRLFPWKLHVTQKDNYSVYNTVP”: the “soluble on expression in E. coli” value is given as “soluble”.
On to “MALINNRSKFSFFNKVRVLLKNILKPDESVEDVVDEHFRFTSSLSLDAPDGQIENLYQDEKDGKYHLTLFDNGLTGATGILPAAYTEWLIERKLRYNDDAPKAFMDMFDHRMYCLSYLAWQKMHLSGDENRRDNNVLNNVLLSLGGITPQTVSVTGLAYVAFYSQPVRSLAGLEQLLSLIHQIRVSINPFRGTFENTEPSEQGVLGNCLYTLGEGPVIGNVRWVVDSHFDVVLGPVDYRKAQELMPGKDSHYFIRQQIRSYIGDVLKFKIYVKIYPGNNDNQLNINNKLGFNLSLGSETENYKERCFCIF”, for which the “soluble on expression in E. coli” value is recorded as “not soluble”.
Take “MALMYPFHVAQPPLNWSEHLWVSEVSPAKESFITTICEHRQAQWDNQDLLRHLQDSVAILTREDQRHVNAVHAAANMPANP”: the “soluble on expression in E. coli” value was “not soluble”.
Consider “MALPLLPGNSFNRNVGKEKFHKSQHWGFCNNVMMLVSDEKPGIGGEPLLGQKIKPKCSIYPKGDGSDVPSWVAFDKQVLSFDAYLEEEVLDKSQTNYRIRYYKIYFYPEDDTIQVNEPEVKNSGLLQGTSIRRHRITLPPPDEDQFYTVYHFNVGTEVVFYGRTFKIYDCDAFTRNFLRKIGVKVNPPVQCPEDPYMKIRREVVEHVEPLRPYESLDTLKQFLQYHGKILCFFCLWDDSVSMFGDRRELILHYFLCDDTIEIKELLPHSSGRDALKMFLRRSKLPKNCPPRVYQPGQITDRAVLNSYGDFIKNQADGYLFDRYKLGKVDQEFYKDSDLSLGVTINVWGRKVLLYDCDEFTKSYYKSKYGIENFTSVSCKPPSPPPKIERKFPPYNGFGSEEDSLRNCIDLKPTPHRRNFKKFMEKDSYGSKSNILRFFAKLVTDKCVDLDRMFVISYYLGDDTISVFEPIERNSGIAGGMFLKRSRVKKPGQEVFKSELSEYIKAEELYIGVTVNVNGYLFRLLNADEYTLNYMEQNTDKYPFSNLKLALQKLKQEEGKSRELKQVFKAADSKHTNMVDYNTFRDILMSLTVGNLAEQEFVTIARHYRVPEGTCSDMDFLIALAHEKFKKNMFENFDTFIYSCVYEDREKKNVLPTKDIKRLCKSSRLPLSDDLLESLLSRFEDSEKQIDYKSFFSALNWRKNPVPELQPASYLKERCEDVWLGMPSPIPAKYIDYWTFLKDAFGLEEE”, for which the “soluble on expression in E. coli” value is recorded as “soluble”.
Consider “MALTCTDMSDAVAGSDAEGLTADAIVVGAGLAGLVAACELADRGLRVLILDQENRANVGGQAFWSFGGLFLVNSPEQRRLGIRDSHELALQDWLGTAAFDRPEDYWPEQWAHAYVDFAAGEKRSWLRARGLKIFRWWAGPSVVVTTRRGTATRCPVSTSPGVLGRLWSTYSCVSCVIAPRCALRTATRSTNLEHHHHHH”, for which the “soluble on expression in E. coli” value was “not soluble”.
On to “MALVEFLMETLDGLKGTDIVHFDVRGKSSITDNMIICTGTSSRQVSAMADNLITECKKAGFETFGEEGKNTADWIVVDLGQAIVHIMQRDAREMYQLEKLWALEHHHHHH”, for which the “soluble on expression in E. coli” value is recorded as “not soluble”.
As for “MAMAVPVSARPQSPAEGFYAINNQFQTNGPKGFSEIKILANEDMFLRMDLPGVPDEGGLSVYHNRSQETVVVFAKAPKVHTHDSTERRYQTMTGIGCSCCAISSITTHMSDGVFRVILSKTRIDPHRSPCTDPALTGPVLQPHPLAFPQPTMAYESKQLPNGKLFVRADMPGVPKENFTVSVTNGRVKVTGQAPAVSHDSSGRFYSGDVAMLSTPVDIPSRRIKTIAKNGVIRLLIPPF”, the entry is “soluble”; as for “MAMDLRDPNVWISHLLENLPEEKLASALKDDNPDWEYIDGEIVKLGSLAHAQLDIPELQRRGLQLLASESKDFRLLAHLLRTLQHAGDPLLALHLLTLYVEHYWTVAAPQNMAHKKRFASQIIKRFETVLKAFHKTLPQRSAILCWVSWRNWRSAGSHITSRNWHRLPMIFLPCTSVRLIVRLLLRSPLRRPPVVHHKPPSRLKAA”, “not soluble”; as for “MANELTWHDVLAEEKQQPYFLNTLQTVASERQSGVTIYPPQKDVFNAFRFTELGDVKVVILGQDPYHGPGQAHGLAFSVRPGIAIPPSLLNMYKELENTIPGFTRPNHGYLESWARQGVLLLNTVLTVRAGQAHSHASLGWETFTDKVISLINQHREGVVFLLWGSHAQKKGAIIDKQRHHVLKAPQPSPLSAHRGFFGCNHFVLANQWLEQHGETPIDWMPVLPAESE”, “soluble”.
“MANHPRAGQPAQQSDLINVAQLTSQYYVLQPDAEDPAHAVKFGTSGHRGSSVRHSFNEAHILAIAQAIAEVRHQHGISGPCYVGKDTHALSEPAFISVLEVLTANGVDVVVQQDNGFTPTPAISHVILCHNAQGKALADGIVITPSHNPPEDGGIKYNPPNGGPADTNLTSVIEKRANQLLSQNLKGVKRQTLDKAWQSNHLREQDLLQPYVEGLVDVVDIPAIQQAGLKLGVDPLGGSGIAYWQRIAEYYKLDLTLVNNAIDQTFRFMHLDHDGVIRMDCSSESAMAGLLALRDKFDLAFANDPDYDRHGIVTPAGLMNPNHYLAVSINYLFQHRPQWGAGVAVGKTLVSSAMIDRVVADLGRKLVEVPVGFKWFVDGLHDGSFGFGGEESAGASFLRFNGTPWSTDKDGIIMCLLAAEITAVTGKDPQRHYDDLAQRFGAPSYNRIQAPATQAQKNALSRLSPEMVKANTLAGDPITARLTNAPGNGASIGGLKVMTENGWFAARPSGTEEAYKIYCESFLGAEHREKIEQEAVKIVSEVLAEAK”: the “soluble on expression in E. coli” value was “not soluble”.
For the sequence “MANRIQEIALSDKNLGSKIKAVYKTERDIYVNGAPVRGRVFTASSEKQRDFEIFVPHLRNSQMLNGREEVKLIDPVARINVKRNNIGNSRSIDMVVYAKRLEVVGGNK”, the “soluble on expression in E. coli” value is “not soluble”.
As to “MANSITADEIREQFSQAMSAMYQQEVPQYGTLLELVADVNLAVLENNPQLHEKMVNADELARLNVERHGAIRVGTAQELATLRRMFAIMGMYPVSYYDLSQAGVPVHSTAFRPIDDASLARNPFRVFTSLLRLELIENEILRQKAAEILRQRDIFTPRCRQLLEEYEQQGGFNETQAQEFVQEALETFRWHQSATVDEETYRALHNEHRLIADVVCFPGCHINHLTPRTLDIDRVQSMMPECGIEPKILIEGPPRREVPILLRQTSFKALEETVLFAGQKQGTHTARFGEIEQRGVALTPKGRQLYDDLLRNAGTGQDNLTHQMHLQETFRTFPDSEFLMRQQGLAWFRYRLTPSGEAHRQAIHPGDDPQPLIERGWVVAQPITYEDFLPVSAAGIFQSNLGNETQTRSHGNASREAFEQALGCPVLDEFQLYQEAEERSKRRCGLL”, the “soluble on expression in E. coli” value was “not soluble”.
Regarding “MANVEAIPGYLTATFPTLPIEIKDYVSAILKENSDEITSLDEVMDAVGEHLQASVENLCEVGAKNACQQLLKLLHGDNLPKAIKQQEATTKRLEQTVDMAAENQNFEALQSIWKVQTRDTPTTVDKKKLAKAEDRAAAKAEARADAPVERKKKKNEPSATASQAPIRDSGARGANSKDIKLESVDISIGTKQLLSCADVTMAFGRRYGLVGRNGIGKTTLLKMISSQQLKIPAGISMLSVEQEVEGDDTLVLDAVLMSDTKRQTLLDREKTLQSRINKDNINDAEKTKWNDELSKLYIEMEALQLDKAPARASSLLYGLGFTPDEQKRPTKEFSGGWRMRVALARALFVKPDLLLLDEPTNMLDMRAVYWLEGHLQGWEGTILTVSHDRKFLNEICTDIVHLHTRRLDHYKGNYDQFEKTMKEKLTQQQREYESQQQLRQHTQEFIDKFRYNAKRAPMVQSRIKMLEKLPVLLPVELESDIHFKFPECEVLSNPVLQLDEVSFRYNEDSPYLFRKLNLGTHANSRICIVGENGAGKTTLLKLLLDDLQPSVGLRNVNRRIRIAYFTQHHVDQLDMETSAIEVLMKNHPGKTQEDYRAALGRFGLAGDMALQSVETLSGGQKSRLAFANLALMQPNYLILDEPTNHLDVETVEALGKALNVFNGGVVLVSHDEQLIELVCKELWVVKDRMVTTLEGGLEEYRKQVYKQLQLTA”, the “soluble on expression in E. coli” value is given as “not soluble”.
In the case of “MAPASILCCDTDNRRPQMKLTGGCYCGALRYEAEGEPMLKAQCHCRACQSYSGGAPNLFMVMPAAGFRYVKGTPKSFRLEDRPDRVTRDFCATCGTGVASHRPGLPAVILKIGTLDDPALFKGPRAAVFAAEKQAFHIIPEGVHAFDGLPPT”, the “soluble on expression in E. coli” value was “not soluble”.
Consider “MAPATERNRDAILAVLKDELRSPGTVLEIASGTGEHGAYFAPQLPDYFWQPSDPNEESRRSIAAWRSHVNAPNLGEAIAIDVTRSDWVESVPEFPQPVVAIAAINLIHISPWEATLGLFAGAKQLLSVDGLIYLYGAYKRGGQHTAPSNEAFDASLQARNPAWGARNLEDVTAVAEAEQFRLDRIVEMPSNNLSVCFRAIALEHHHHHH”, for which the “soluble on expression in E. coli” value is listed as “not soluble”.
Regarding “MAPSCLKMAHMRLLLTSFGHDHIRDFVRGTVAYIPDATRLFADSPEAAPFMETERNMLREHGLSIRELPISTSTPEEVDRVLGEVDGVYVAGGETFDLMWLLRSTGNDEVLIKHVRAGLPYIGTSAGAVIAGPSIEPISFLDSPDVAPNLSDYSGLGLCEHVVVPHAGGTIPQFPIDVFAETVRTYGAEFPLVLLKDGQALLIDDHGVHLILEHHHHHH”, the “soluble on expression in E. coli” value is listed as “soluble”.
As to “MAPSGGQEAQICDSETFGDSDFVVVANRLPVDLERLPDGSTTWKRSPGGLVTALEPVLRRRRGAWVGWPGVNDDGAEPDLHVLDGPIIQDELELHPVRLSTTDIAQYYEGFSNATLWPLYHDVIVKPLYHREWWDRYVDVNQRFAEAASRAAAHGATVWVQDYQLQLVPKMLRMLRPDLTIGFFLHIPFPPVELFMQMPWRTEIIQGLLGADLVGFHLPGGAQNFLILSRRLVGTDTSRGTVGVRSRFGAAVLGSRTIRVGAFPISVDSGALDHAARDRNIRRRAREIRTELGNPRKILLGVDRLDYTKGIDVRLKAFSELLAEGRVKRDDTVVVQLATPSRERVESYQTLRNDIERQVGHINGEYGEVGHPVVHYLHRPAPRDELIAFFVASDVMLVTPLRDGMNLVAKEYVACRSDLGGALVLSEFTGAAAELRHAYLVNPHDLEGVKDGIEEALNQTEEAGRRRMRSLRRQVLAHDVDRWAQSFLDALAGAHPRGQG”, the “soluble on expression in E. coli” value is “not soluble”.
As for “MAPSQAPSRDRAGQEDEDRWEARGDRKARKPLVEKKRRARINESLQELRLLLAGTEVQAKLENAEVLELTVRRVQGALRGRAREREQLQAEASERFAAGYIQCMHEVHTFVSTCQAIDATVSAELLNHLLESMPLREGSSFQDLLGDSLAGLPGGSGRSSWPPGGSPESPLSSPPGPGDDLCSDLEEIPEAELNRVPAEGPDLVSTSLGSLTAARRAQSVWRPW”, the “soluble on expression in E. coli” value is “not soluble”.
For “MAPTMNNGWMDSLSWIKSETPENSVVTCWWDNGHIYTWATRKMVTFDGGSQNTPRAYWVGHAFSTSDENLSVGILRMLATSGDSAYDDDSILIKKTGSIKDTVDILNKILPLTRTEAKASLVNNYDLTDAEAEEVLDLTHPKVTNPDYLITYNRMTSIASVWSMFGNWNFSLPASTENSDREMGLEHHHHHH”, the “soluble on expression in E. coli” value is recorded as “soluble”.

The record behind these values is the DeepSol protein solubility set.
